Experimental data: patent publication US5578310A, “Topical bioadhesive ointment compositions and their use in wound healing” (Berlex Laboratories Inc., priority 1994, dated 1996)

Test: In vivo uptake and tissue distribution of 125I-TGFα from TJ-TGFα formulation on wounded cheek pouch
Set-up: species or system Golden Syrian hamsters
Conditions: for Distribution of 125I-TGFα in the Tissues: Kidney / Distribution of 125I-TGFα in the Tissues: Liver / Distribution of 125I-TGFα in the Tissues: Small Intestine / Distribution of 125I-TGFα in the Tissues: Stomach / Distribution of 125I-TGFα in the Tissues: Submaxillary Gland / Distribution of 125I-TGFα in the Tissues: Thyroid / Distribution of 125I-TGFα in the Tissues: Tongue / Distribution of 125I-TGFα in the Tissues: Blood / Distribution of 125I-TGFα in the Tissues: Cecum / Distribution of 125I-TGFα in the Tissues: Colon / Distribution of 125I-TGFα in the Tissues: Esophagus: cheek pouch wound; for Distribution of 125I-TGFα in the Tissues: Cheek Pouch: right-hand side cheek pouch (application site); for Distribution of 125I-TGFα in the Tissues: Skin: 25 cm^2 skin on back
Description: The TGFα-containing ointment composition of Example 2 (TJ-TGFα formulation) was subjected, both in vitro and in vivo, to evaluation to meet the therapeutical requirements for oral mucositis. The in vitro evaluation included TGFα release and extraction from the composition, autoclave sterilizability and the bioactivity and stability of TGFα in the composition. The in vivo evaluation included TGFα uptake and tissue distribution of absorbed TGFα from hamster's cheek pouch.
B. The in vivo uptake of TGFα from the TJ-TGFα formulation was determined in Golden Syrian hamsters, female, approximately 150 g using an ^125 I-TGFα formulation (specific activity-45 μci/μg), the hamster's cheek pouch having a mechanically created wound. A pharmacokinetic study of tissue distribution of TGFα absorbed by the hamsters was also conducted. The methods employed were as follows:
1. Fast hamsters overnight.
2. Anesthetize hamsters by I.M. injection of ketamine HCl.
3. Create a 2 mm diameter wound on the right-hand side of hamster's cheek pouch by a biopsy punch.
4. Following the removal of the debridement and blood clot, administer 20 μl TJ-TGFα formulation containing 26 μci 125I-TGFα onto the wound area by a Gilson Microman.
5. Keep the hamsters in their cages and give no water or food during the course of 6 hours study.
6. Select three hamsters at time 15 minutes, 30 minutes, 1 hour, 2 hours, 4 hours and 6 hours and select one hamster at 24 hours for TGFα uptake and tissue distribution study.
7. Punch a needle into the hamster's heart and withdrawn 1 ml blood by a 5 ml syringe.
8. Sacrifice hamster by inhalation of an overdose of carbon dioxide vapor from dry ice in a closed chamber.
9. Immediately after sacrificing, remove the liver, kidney, thyroid, submaxillary gland, esophagus, stomach, small intestine, cecum, colon, 25 cm^2 skin on back, tongue and right-hand side of cheek pouch.
11. Count the CPM of ^125 I-TGFα that distributed in the hamster's tissue and GI contents.

## ^125 I-TGFα: 125I-labelled TGFα (specific activity 45 μci/μg) administered in TJ-TGFα formulation onto the hamster cheek pouch wound
1 hr.
  Distribution of 125I-TGFα in the Tissues: Kidney: 0.07%
  Distribution of 125I-TGFα in the Tissues: Liver: 0.09%
  Distribution of 125I-TGFα in the Tissues: Small Intestine: 0.04%
  Distribution of 125I-TGFα in the Tissues: Stomach: 0.05%
  Distribution of 125I-TGFα in the Tissues: Submaxillary Gland: 0.04%
  Distribution of 125I-TGFα in the Tissues: Thyroid: 0.02%
  Distribution of 125I-TGFα in the Tissues: Tongue: 4.82%
  Distribution of 125I-TGFα in the Tissues: Cheek Pouch: 70%
2 hrs.
  Distribution of 125I-TGFα in the Tissues: Skin: 0.10%
  Distribution of 125I-TGFα in the Tissues: Blood: 0.05%
  Distribution of 125I-TGFα in the Tissues: Cecum: 0.06%
  Distribution of 125I-TGFα in the Tissues: Colon: 0.06%
  Distribution of 125I-TGFα in the Tissues: Esophagus: 0.01%
  Distribution of 125I-TGFα in the Tissues: Kidney: 0.14%
  Distribution of 125I-TGFα in the Tissues: Liver: 0.17%
  Distribution of 125I-TGFα in the Tissues: Small Intestine: 0.07%
  Distribution of 125I-TGFα in the Tissues: Stomach: 0.10%
  Distribution of 125I-TGFα in the Tissues: Submaxillary Gland: 0.20%
  Distribution of 125I-TGFα in the Tissues: Thyroid: 0.14%
  Distribution of 125I-TGFα in the Tissues: Tongue: 3.57%
  Distribution of 125I-TGFα in the Tissues: Cheek Pouch: 74%
4 hrs.
  Distribution of 125I-TGFα in the Tissues: Skin: 0.14%
  Distribution of 125I-TGFα in the Tissues: Blood: 0.13%
  Distribution of 125I-TGFα in the Tissues: Cecum: 0.04%
  Distribution of 125I-TGFα in the Tissues: Colon: 0.13%
  Distribution of 125I-TGFα in the Tissues: Esophagus: 0.26%
  Distribution of 125I-TGFα in the Tissues: Kidney: 0.23%
  Distribution of 125I-TGFα in the Tissues: Liver: 0.26%
  Distribution of 125I-TGFα in the Tissues: Small Intestine: 0.12%
  Distribution of 125I-TGFα in the Tissues: Stomach: 0.74%
  Distribution of 125I-TGFα in the Tissues: Submaxillary Gland: 0.42%
  Distribution of 125I-TGFα in the Tissues: Thyroid: 0.39%
  Distribution of 125I-TGFα in the Tissues: Tongue: 3.37%
  Distribution of 125I-TGFα in the Tissues: Cheek Pouch: 74%
6 hrs.
  Distribution of 125I-TGFα in the Tissues: Skin: 0.13%
  Distribution of 125I-TGFα in the Tissues: Blood: 0.13%
  Distribution of 125I-TGFα in the Tissues: Cecum: 0.08%
  Distribution of 125I-TGFα in the Tissues: Colon: 0.12%
  Distribution of 125I-TGFα in the Tissues: Esophagus: 0.27%
  Distribution of 125I-TGFα in the Tissues: Kidney: 0.27%
  Distribution of 125I-TGFα in the Tissues: Liver: 0.24%
  Distribution of 125I-TGFα in the Tissues: Small Intestine: 0.15%
  Distribution of 125I-TGFα in the Tissues: Stomach: 1.06%
  Distribution of 125I-TGFα in the Tissues: Submaxillary Gland: 0.77%
  Distribution of 125I-TGFα in the Tissues: Thyroid: 0.88%
  Distribution of 125I-TGFα in the Tissues: Tongue: 1.25%
  Distribution of 125I-TGFα in the Tissues: Cheek Pouch: 84%
24 hrs.
  Distribution of 125I-TGFα in the Tissues: Skin: 0.13%
  Distribution of 125I-TGFα in the Tissues: Blood: 0.22%
  Distribution of 125I-TGFα in the Tissues: Cecum: 0.05%
  Distribution of 125I-TGFα in the Tissues: Colon: 1.57%
  Distribution of 125I-TGFα in the Tissues: Esophagus: 0.04%
  Distribution of 125I-TGFα in the Tissues: Kidney: 0.24%
  Distribution of 125I-TGFα in the Tissues: Liver: 0.59%
  Distribution of 125I-TGFα in the Tissues: Small Intestine: 0.40%
  Distribution of 125I-TGFα in the Tissues: Stomach: 1.23%
  Distribution of 125I-TGFα in the Tissues: Submaxillary Gland: 0.77%
  Distribution of 125I-TGFα in the Tissues: Thyroid: 2.84%
  Distribution of 125I-TGFα in the Tissues: Tongue: 0.66%
  Distribution of 125I-TGFα in the Tissues: Cheek Pouch: 21%
